Reference: patent publication US20180117114A1 (INDIANA UNIVERSITY RESEARCH AND TECHNOLOGY COPORATION, published 2018)

Each binder was assayed against CRMP-2 from wild-type mouse brain lysate (mouse, UniProt O08553 1-572) (assay: SPOTS array of neurofibromin 15-mers overlaid with mouse brain lysate, probed with three CRMP-2 antibodies).

Row | binding result | Binder
1 | binds | YLQSFGFNGLWRFAG (15-mer on a SPOTS membrane) [SEQ ID NO: 3, neurofibromin C-terminus peptide YLQSFGFNGLWRFAG]
2 | binds | RVSHGQIKQIIRILS (15-mer on a SPOTS membrane) [SEQ ID NO: 1, neurofibromin C-terminus peptide RVSHGQIKQIIRILS]
3 | binds | KGYRHPSPAIVARTV (15-mer on a SPOTS membrane) [SEQ ID NO: 2, neurofibromin C-terminus peptide KGYRHPSPAIVARTV]
